Reference: patent US20220031841A1 (ABSCI, published 2022)

Experiments:
Assay in all cases: HuProt protein array, F635 z-score
[1] = target: T1, Chromobox protein homolog 1 (CBX1) (human, UniProt P83916 1-185)
T1 construct: The array carries full-length recombinant human proteins expressed in S. cerevisiae; also called Human Chromobox protein homolog 1
Excerpt: (§1) Large scale protein arrays are versatile and sensitive platforms for antibody specificity evaluation. They can be used for the evaluation of protein binding or affinity reagents that are widely employed in research and clinical applications. The microarray used in our target identification experiment provides the largest number of unique, full-length, individually purified human proteins on a single microscope slide. This allows thousands of interactions to be profiled in a high-throughput manner. The hill-length recombinant proteins are expressed in the yeast S. cerevisiae, purified, and printed on glass slides in duplicate along with a set of control proteins (GST, BSA, histones, IgG, etc.). Such microarray is not restricted to a particular type of surface coating, although the default is glass coated with ultra-thin nitrocellulose film for the non-covalent, yet irreversible, capture of active proteins to the surface. Fourteen Protein arrays were used for the antibody cross-reactivity assay of the samples. The antibodies were probed at […] on the arrays and incubated at room temperature for 1 hour. After probing, the arrays were washed according to the protocol and probed with Alexa-647-anti-human IgG […] specific secondary antibodies under conditions optimized for signal detection. The antibody-antigen binding score was calculated for each protein represented on the array and expressed as z-scores.
(§2) Antibody samples are probed on native HuProt arrays at 1 μg/ml and incubated at room temperature for 1 hour. After probing, the arrays are washed according to the standard protocols and probed with Alexa-647-anti-human IgG Fc gamma specific secondary antibodies under conditions optimized for signal detection.
(§3) Z score is the average Z score of the duplicate spots of a given protein (each protein is printed in duplicate on a HuProt™ array). The Z score of each spot on a given array is calculated according to the equation: […]

[2] = target: T2, Chromobox protein homolog 5 (CBX5) (human, UniProt P45973 1-191)
T2 construct: The array carries full-length recombinant human proteins expressed in S. cerevisiae; also called Human Chromobox protein homolog 5
T2 sequence (P45973 whole entry): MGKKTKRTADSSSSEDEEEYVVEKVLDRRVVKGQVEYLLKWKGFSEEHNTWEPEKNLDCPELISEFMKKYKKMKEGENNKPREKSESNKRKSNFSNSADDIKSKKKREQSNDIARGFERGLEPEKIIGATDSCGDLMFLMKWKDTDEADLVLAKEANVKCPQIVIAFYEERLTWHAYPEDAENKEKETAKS
Excerpt: as §1, §2, §3

[3] = target: T3, Cancer/testis antigen 1 (CTAG1A) (human, UniProt P78358 1-180)
T3 construct: The array carries full-length recombinant human proteins expressed in S. cerevisiae; also called NY-ESO-1; Cancer/Testis Antigen 1A
T3 sequence (P78358 whole entry): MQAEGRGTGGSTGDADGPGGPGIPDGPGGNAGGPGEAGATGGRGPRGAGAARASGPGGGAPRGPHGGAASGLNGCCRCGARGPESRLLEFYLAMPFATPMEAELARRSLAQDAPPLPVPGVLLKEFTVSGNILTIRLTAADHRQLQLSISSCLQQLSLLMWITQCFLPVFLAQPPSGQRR
Excerpt: as §1, §2, §3

[4] = target: T4, Melanoma-associated antigen 3 (MAGE-A3) (human, UniProt P43357 1-314)
T4 construct: The array carries full-length recombinant human proteins expressed in S. cerevisiae; also called Human MAGE-A3
T4 sequence (P43357 whole entry): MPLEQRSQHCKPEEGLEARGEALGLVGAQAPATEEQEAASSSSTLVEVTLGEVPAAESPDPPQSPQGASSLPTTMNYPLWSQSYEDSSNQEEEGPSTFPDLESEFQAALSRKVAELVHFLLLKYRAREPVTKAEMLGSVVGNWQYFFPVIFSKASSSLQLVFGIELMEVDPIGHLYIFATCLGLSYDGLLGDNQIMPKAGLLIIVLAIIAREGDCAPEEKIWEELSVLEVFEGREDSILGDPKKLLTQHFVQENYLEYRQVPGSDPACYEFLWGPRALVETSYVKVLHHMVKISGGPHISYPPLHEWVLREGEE
Excerpt: as §1, §2, §3

[5] = target: T5, Inorganic pyrophosphatase (PPA1) (human, UniProt Q15181 2-289)
T5 construct: The array carries full-length recombinant human proteins expressed in S. cerevisiae; also called Human PPA1
T5 sequence: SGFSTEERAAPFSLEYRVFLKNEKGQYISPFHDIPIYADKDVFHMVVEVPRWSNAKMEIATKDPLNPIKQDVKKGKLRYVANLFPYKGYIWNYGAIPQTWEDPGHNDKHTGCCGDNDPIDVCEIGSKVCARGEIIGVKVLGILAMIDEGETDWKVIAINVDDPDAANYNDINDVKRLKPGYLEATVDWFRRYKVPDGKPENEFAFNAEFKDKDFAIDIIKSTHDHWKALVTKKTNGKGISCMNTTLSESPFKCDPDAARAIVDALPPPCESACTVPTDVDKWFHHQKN
Excerpt: as §1, §2, §3

[6] = target: T6, Alpha-taxilin (TXLNA) also known as interleukin-14A (human, UniProt P40222 1-546)
T6 construct: The array carries full-length recombinant human proteins expressed in S. cerevisiae; also called IL-14A; TXLNA/IL-14A
T6 sequence (P40222 whole entry): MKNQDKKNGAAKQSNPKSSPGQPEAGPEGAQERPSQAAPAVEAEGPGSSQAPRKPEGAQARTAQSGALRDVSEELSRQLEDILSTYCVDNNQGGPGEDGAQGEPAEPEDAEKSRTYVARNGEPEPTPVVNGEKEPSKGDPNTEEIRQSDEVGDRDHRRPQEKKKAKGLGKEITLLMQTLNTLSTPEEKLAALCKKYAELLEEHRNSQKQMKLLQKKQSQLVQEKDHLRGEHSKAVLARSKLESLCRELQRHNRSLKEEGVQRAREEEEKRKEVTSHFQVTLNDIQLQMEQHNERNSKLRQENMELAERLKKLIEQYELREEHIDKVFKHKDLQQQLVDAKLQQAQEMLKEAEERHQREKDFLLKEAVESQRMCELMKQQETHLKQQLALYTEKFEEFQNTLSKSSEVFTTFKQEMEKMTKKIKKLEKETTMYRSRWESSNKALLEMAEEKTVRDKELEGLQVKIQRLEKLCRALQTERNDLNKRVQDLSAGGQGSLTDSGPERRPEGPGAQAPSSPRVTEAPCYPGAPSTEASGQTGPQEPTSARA
Excerpt: as §1, §2, §3

[7] = target: T7, O-linked N-acetylglucosamine (GlcNAc) transferase (OGT) (human, UniProt O15294 2-1046)
T7 construct: The array carries full-length recombinant human proteins expressed in S. cerevisiae; also called Human OGT
T7 sequence: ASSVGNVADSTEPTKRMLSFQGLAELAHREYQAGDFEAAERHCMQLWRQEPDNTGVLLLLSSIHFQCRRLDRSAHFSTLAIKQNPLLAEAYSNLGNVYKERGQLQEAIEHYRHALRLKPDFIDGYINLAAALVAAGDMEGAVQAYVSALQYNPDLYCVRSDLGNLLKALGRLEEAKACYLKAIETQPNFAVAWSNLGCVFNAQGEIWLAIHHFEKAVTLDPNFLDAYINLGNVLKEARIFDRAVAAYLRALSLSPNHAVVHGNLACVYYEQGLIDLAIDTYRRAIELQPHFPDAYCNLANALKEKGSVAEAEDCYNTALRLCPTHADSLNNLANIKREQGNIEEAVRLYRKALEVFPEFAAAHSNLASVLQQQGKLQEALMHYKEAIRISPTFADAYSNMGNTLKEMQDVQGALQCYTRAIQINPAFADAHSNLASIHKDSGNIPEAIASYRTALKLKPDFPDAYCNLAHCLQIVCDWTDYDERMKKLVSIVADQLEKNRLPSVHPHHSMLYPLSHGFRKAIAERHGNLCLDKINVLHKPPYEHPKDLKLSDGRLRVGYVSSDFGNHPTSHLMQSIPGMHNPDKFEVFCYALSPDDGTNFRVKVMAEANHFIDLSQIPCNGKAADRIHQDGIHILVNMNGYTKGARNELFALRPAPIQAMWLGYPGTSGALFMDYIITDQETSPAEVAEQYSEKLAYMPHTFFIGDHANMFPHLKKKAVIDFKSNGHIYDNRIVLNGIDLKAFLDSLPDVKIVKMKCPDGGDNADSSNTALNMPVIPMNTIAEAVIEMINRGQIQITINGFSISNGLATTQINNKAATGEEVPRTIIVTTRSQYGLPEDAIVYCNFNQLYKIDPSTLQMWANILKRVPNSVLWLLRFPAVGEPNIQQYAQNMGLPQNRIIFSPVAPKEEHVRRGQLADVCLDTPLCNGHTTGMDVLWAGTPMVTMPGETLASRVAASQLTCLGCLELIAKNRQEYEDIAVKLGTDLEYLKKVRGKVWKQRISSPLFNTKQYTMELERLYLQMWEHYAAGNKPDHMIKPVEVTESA
Excerpt: as §1, §2, §3

[8] = target: T8, Src homology 2 (SH2) domain containing inositol polyphosphate 5-phosphatase 1 (SHIP1) (human, UniProt Q92835 1-1189)
T8 construct: The array carries full-length recombinant human proteins expressed in S. cerevisiae, purified and printed on glass slides; also called INPP5D; INPP5D/SHIP1
T8 sequence: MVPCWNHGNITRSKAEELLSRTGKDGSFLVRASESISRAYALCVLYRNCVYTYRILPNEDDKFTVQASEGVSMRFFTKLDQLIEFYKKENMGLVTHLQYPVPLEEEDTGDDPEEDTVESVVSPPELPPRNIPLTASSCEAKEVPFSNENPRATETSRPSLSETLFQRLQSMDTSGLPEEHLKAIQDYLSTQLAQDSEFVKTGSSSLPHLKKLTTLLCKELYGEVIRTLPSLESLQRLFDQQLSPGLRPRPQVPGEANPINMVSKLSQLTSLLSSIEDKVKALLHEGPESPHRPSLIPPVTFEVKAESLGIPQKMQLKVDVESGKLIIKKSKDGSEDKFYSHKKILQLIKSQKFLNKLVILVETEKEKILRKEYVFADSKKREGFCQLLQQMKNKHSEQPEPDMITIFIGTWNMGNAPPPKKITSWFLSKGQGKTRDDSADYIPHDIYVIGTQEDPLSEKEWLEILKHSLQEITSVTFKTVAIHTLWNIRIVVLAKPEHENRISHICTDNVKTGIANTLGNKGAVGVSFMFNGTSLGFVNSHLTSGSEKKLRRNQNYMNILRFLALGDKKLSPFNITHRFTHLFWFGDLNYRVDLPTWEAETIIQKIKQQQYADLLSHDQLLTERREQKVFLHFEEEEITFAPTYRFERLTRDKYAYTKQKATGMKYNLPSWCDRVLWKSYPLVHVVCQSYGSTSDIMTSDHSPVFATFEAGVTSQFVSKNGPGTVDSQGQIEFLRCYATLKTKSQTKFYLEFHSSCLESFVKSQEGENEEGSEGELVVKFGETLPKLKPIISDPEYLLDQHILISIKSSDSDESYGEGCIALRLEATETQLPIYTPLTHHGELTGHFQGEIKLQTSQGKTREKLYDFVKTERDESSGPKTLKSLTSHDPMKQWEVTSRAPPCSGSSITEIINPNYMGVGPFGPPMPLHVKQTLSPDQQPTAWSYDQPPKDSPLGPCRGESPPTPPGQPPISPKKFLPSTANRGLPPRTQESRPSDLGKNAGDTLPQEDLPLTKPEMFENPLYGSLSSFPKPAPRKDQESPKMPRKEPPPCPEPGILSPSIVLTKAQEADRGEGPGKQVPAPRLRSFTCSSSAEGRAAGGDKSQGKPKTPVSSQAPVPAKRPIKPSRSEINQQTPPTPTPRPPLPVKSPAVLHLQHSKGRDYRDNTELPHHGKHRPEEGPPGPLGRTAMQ
Excerpt: as §1, §2, §3

Measured: binding result

T1 sequence (P83916 whole entry): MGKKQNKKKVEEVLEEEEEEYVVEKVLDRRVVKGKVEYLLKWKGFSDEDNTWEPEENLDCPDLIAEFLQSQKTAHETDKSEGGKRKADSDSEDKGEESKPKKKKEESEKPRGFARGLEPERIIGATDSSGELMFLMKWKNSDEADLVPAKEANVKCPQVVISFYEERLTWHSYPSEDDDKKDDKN

B1: TMEL1001 (antibody, V domains shown)
VH: EVQLVESGGGLVKPGGSLRLSCAASGFTFRSYSMNWVRQAPGKGLEWVSSISSSGNYIYYADSVKGRFTLSRDNAKNSLYLQMNSLRAEDTAVYYCARGGGTSWSHYWGQGTLVTVSS
VL: QFMLTQPHSVSESPGKTVTISCTRSSGSIASNYVQWYQQRPGSAPTTVIYEDNERPSGVPDRFSGSIDSSSNSASLTISGLKTEDEADYYCQSYDSNNRWVFGGGTKLTVLG
notes: It was detected with an anti-human IgG Fc gamma secondary antibody
no binding (tested: 1 µg/ml): [1] | [2] | [3] | [4] | [5] | [6] | [7]

B2: TMEL1003 (antibody, V domains shown)
VH: AVQLVQSGAEVKKPGESLRISCKGSGYSFTSYWISWVRQMPGKGLEWMGRIDPSDSYTNYSPSFQGHVTISADKSISTAYLQWSSLKTSDTAMYYCARPLQTYSIASVGHWGQGTLVTVSS
VL: ASALTQPASVSGSPGQSITISCTGTSSDVGSYNLVSWYQQHPGKAPKLMIYEGSKRPSGVSNRFSGSKSGNTASLTISGLQAEDEADYYCCSYAGSSTFAVFGGGTKLTVLG
notes: the heavy entry continues into what looks like a non-IgG (IgM-like) CH1; It was detected with an anti-human IgG Fc gamma secondary antibody
no binding (tested: 1 µg/ml): [8] | [3] | [4] | [5] | [7]

B3: TMEL1006 (antibody, V domains shown)
VH: VVQLVESGGGLVQPGGSLRLSCAASGLTFRNYAMSWVRQAPGKGLEWVSAISGSGGRTHYADSVKGRFTISRDNSKNTLFLQMNSLRAEDTAVYYCAKEIGKYGTPTLFQHWGQGTLVTVSS
VL: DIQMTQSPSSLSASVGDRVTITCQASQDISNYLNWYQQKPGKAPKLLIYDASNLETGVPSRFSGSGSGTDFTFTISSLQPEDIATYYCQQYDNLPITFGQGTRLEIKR
notes: as for B1
no binding (tested: 1 µg/ml): [8] | [1] | [2] | [5] | [6] | [7]
